Assay results reported in patent US20240043568A1 (KEYMED BIOSCIENCES, published 2024).
Where a chain is given by its changes, count along the chain named.

T1: human CD3εγ-Fc heterodimer (human)
T1 construct: also called human CD3 εγ protein; recombinant CD3 εγ protein
T1 chain 1: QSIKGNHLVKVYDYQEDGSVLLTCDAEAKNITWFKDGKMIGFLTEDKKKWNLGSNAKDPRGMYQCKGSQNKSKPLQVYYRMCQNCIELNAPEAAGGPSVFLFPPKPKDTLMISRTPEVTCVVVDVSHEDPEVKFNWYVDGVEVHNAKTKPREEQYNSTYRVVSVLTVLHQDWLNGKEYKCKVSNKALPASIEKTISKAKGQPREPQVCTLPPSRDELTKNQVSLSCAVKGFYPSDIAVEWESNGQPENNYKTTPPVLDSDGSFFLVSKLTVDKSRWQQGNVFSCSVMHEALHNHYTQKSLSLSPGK
T1 chain 2: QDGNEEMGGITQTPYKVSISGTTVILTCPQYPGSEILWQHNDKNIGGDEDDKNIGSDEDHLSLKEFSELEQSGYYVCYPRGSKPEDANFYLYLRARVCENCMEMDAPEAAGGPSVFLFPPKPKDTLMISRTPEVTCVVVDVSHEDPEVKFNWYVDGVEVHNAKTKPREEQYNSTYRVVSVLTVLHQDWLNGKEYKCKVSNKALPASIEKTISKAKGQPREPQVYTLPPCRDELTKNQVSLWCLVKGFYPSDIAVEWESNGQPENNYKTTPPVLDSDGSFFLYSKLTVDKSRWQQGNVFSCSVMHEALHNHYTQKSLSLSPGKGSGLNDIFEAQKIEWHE

B1: GPC3×CD3 κλ002 (bispecific antibody, human IgG4 S228P, kappa, lambda)
light 1: DVVMTQSPLSLPVTPGEPASISCRSSQSIVHSNGNTYLEWYLKKPGQSPQLLIYKVSNRFSGVPDRFSGSGSGTDFTLKISRVEAEDVGVYFCLQVTHVPLTFGQGTKLEIKRTVAAPSVFIFPPSDEQLKSGTASVVCLLNNFYPREAKVQWKVDNALQSGNSQESVTEQDSKDSTYSLSSTLTLSKADYEKHKVYACEVTHQGLSSPVTKSFNRGEC
heavy 1: QVQLVQSGAEVKKPGSSVKVSCKASGYTFADYEIHWVREAPGQGLEWMGAIHPGSGGTAYAQKFQGRVTLTADESSTTAYMELSSLRSEDTAVYYCTRYYSFAYWGQGTLVTVSSASTKGPSVFPLAPCSRSTSESTAALGCLVKDYFPEPVTVSWNSGALTSGVHTFPAVLQSSGLYSLSSVVTVPSSSLGTKTYTCNVDHKPSNTKVDKRVESKYGPPCPPCPAPEFEGGPSVFLFPPKPKDTLMISRTPEVTCVVVDVSQEDPEVQFNWYVDGVEVHNAKTKPREEQFNSTYRVVSVLTVLHQDWLNGKEYKCKVSNKGLASSIEKTISKAKGQPREPQVCTLPPSQEEMTKNQVSLSCAVKGFYPSDIAVEWESNGQPENNYKTTPPVLDSDGSFFLVSKLTVDKSRWQEGNVFSCSVMHEALHNHYTQKSLSLSLGK
light 2: QAVVTQEPSLTVSPGGTVTLTCRSSTGAVTTSNYANWVQEKPGQAPRGLIGGTNKRAPWTPARFSGSLLGGKAALTITGAQAEDEAEYYCVLWYSNLWVFGGGTKLTVLGQPKAAPSVTLFPPSSEELQANKATLVCLISDFYPGAVTVAWKADSSPVKAGVETTTPSKQSNNKYAASSYLSLTPEQWKSHRSYSCQVTHEGSTVEKTVAPTECS
heavy 2: EVQLVESGGGLVQPGGSLRLSCAASGFTFNTYAMNWVRKAPGKGLEWVGRIRSKYNNYATYYADSVKDRFTISRDDSKNSLYLQMNSLKTEDTAVYYCVRHGNFGNSYVSWFAYWGQGTLVTVSSASTKGPSVFPLAPCSRSTSESTAALGCLVKDYFPEPVTVSWNSGALTSGVHTFPAVLQSSGLYSLSSVVTVPSSSLGTKTYTCNVDHKPSNTKVDKRVESKYGPPCPPCPAPEFEGGPSVFLFPPKPKDTLMISRTPEVTCVVVDVSQEDPEVQFNWYVDGVEVHNAKTKPREEQFNSTYRVVSVLTVLHQDWLNGKEYKCKVSNKGLASSIEKTISKAKGQPREPQVYTLPPCQEEMTKNQVSLWCLVKGFYPSDIAVEWESNGQPENNYKTTPPVLDSDGSFFLYSKLTVDKSRWQEGNVFSCSVMHEALHNHYTQKSLSLSLGK
notes: also called GPC3 x CD3 κλ002; GPC3×CD3κλ bispecific antibody
B2: GPC3×CD3 κλ003 (bispecific antibody, human IgG4 S228P, kappa, lambda)
light 1: B1 light 1 with E128K, Q129K
heavy 1: B1 heavy 1 with K145E, K211E
light 2: B1 light 2
heavy 2: B1 heavy 2
notes: also called GPC3 x CD3 κλ003; GPC3×CD3κλ bispecific antibody

Experiments:
human GPC3 on cells = target: T2, human GPC3 on cells (human, UniProt P51654 25-563); test: flow cytometry, HepG2 cells
T2 construct: whole, on cells; One molecule is used for both CHO-hGPC3 transfectants and GPC3+ HepG2 cells; The assay field names the cell; also called CHO-hGPC3 (clone 2B10); CHO-human GPC3
Procedure: HepG2 cells in the logarithmic growth phase were taken, added with 200 μg/mL of murine IgG (Jackson ImmunoResearch, 115-005-03), and blocked on an ice bath for 30 min. The cells were adjusted to 5×10⁵ cells/mL with 4% calf serum and added to a 96-well U-shaped plate at 100 μl/well. The centrifugation was performed at 300 g for 5 min. The supernatant was discarded. 100 μL of gradient diluted antibody (initial concentration: 1800 nM, 3-fold dilution, 10 gradients) was added to each well, and incubated at 4° C. for 60 min. The primary antibody was washed, added with Alexa Fluro647 labeled goat anti-human IgG Fc (1:300 dilution) 50 μL/well, and incubated on ice for 20 min. After washing once, PI solution was added at 50 μL/well. Incubation was performed for 5 min before detection by flow cytometry. The GPC3×CD3κλ bispecific antibody can bind to GPC3+ tumor cell HepG2 with high affinity.

[1] = target: T3, cynomolgus monkey GPC3 on CHO cells (cynomolgus monkey, UniProt A0A2K5VK50 24-579); test: flow cytometry, CHO-cynomolgus monkey GPC3 cells
T3 construct: whole, on cells; also called CHO-cynoGPC3 (clone 4D6); CHO-cynomolgus monkey GPC3
Procedure: CHO-human GPC3 and CHO-cynomolgus monkey GPC3 stably-transfected cells in the logarithmic growth phase were taken, adjusted to 5×10⁵ cells/ml using 4% calf serum (Hyclone, SH30626.06), and added to a 96-well U-shaped plate at 100 μl/well cell suspension. The centrifugation was performed at 300 g for 5 min. The supernatant was discarded. 100 μL of gradient diluted antibody (initial concentration: 1800 nM, 3-fold dilution, 10 gradients) was added to each well, and incubated at 4° C. for 60 min. The secondary antibody Alexa Fluro647 labeled goat anti-human IgG Fc (1:300 dilution) was added at 50 μL/well and incubated on ice for 20 min. After washing once, propidium iodide solution (1:300) was added at 50 μL/well. Incubation was performed for 5 min before detection by flow cytometry.

human CD3 on T cells = target: T4, human CD3 on T cells (human, UniProt P07766 23-207); test: flow cytometry, human peripheral blood CD4+ T cells
T4 construct: whole, on cells; The target is the native CD3 complex on cells; The recombinant antigen used elsewhere is the εγ heterodimer; also called CD3 on Jurkat cells; CD3 on human peripheral blood CD4+ and CD8+ T cells
Procedure: Fresh human peripheral blood was taken and PBMCs were isolated by Ficoll-Paque Plus (GE, 17-1440-03). The PBMCs were adjusted to 5×10⁵ cells/mL with 4% calf serum (Hyclone, SH30626.06), and added to a 96-well U-plate at 100 μL/well. The centrifuged supernatant was discarded. 100 μL of gradient diluted antibody (initial concentration: 1800 nM, 3-fold dilution, 11 gradients) was added to each well and incubated at 4° C. for 60 minutes. The secondary antibody Alexa Fluro647 labeled goat anti-human IgG Fc (1:300 dilution) was added at 50 μL/well and incubated on an ice bath for 20 min. After washing once, PI solution was added at 50 μL/well. Incubation was performed for 5 min before detection by flow cytometry (BD Celesta). The GPC3×CD3κλ bispecific antibody can bind to the human peripheral blood T cell with low affinity.

[2] = target: T1, human CD3εγ-Fc heterodimer; test: SPR (Biacore T200), CD3εγ amine-coupled to the chip, antibody as analyte
Procedure: Human or monkey CD3 εγ recombinant antigen at 10 μg/mL was bound to a CMS chip (GE healthcare) by amino coupling, and the antigen binding capacity was controlled to approximately 200 RU. After the baseline was stable, gradient diluted antibodies (initially with 10 μg/mL, 2-fold dilution, 7 gradients) were flowed through the chip at a flow rate of 30 μL/min, with an association time of 350 seconds and a dissociation time of 600 seconds. The kinetic constants were obtained by fitting with 1:1 binding model using Biacore T200 evaluation software.

| Binder | EC50 (human GPC3 on cells) [nM] | EC50 [1] [nM] | EC50 (human CD3 on T cells) [nM] | Kd [2] [nM] |
| --- | --- | --- | --- | --- |
| B1 | 2.1 | 3 | 65 | 15.9 |
| B2 | 2.5 | 3 | 56 | 12.1 |
